Experimental data published in a protein production outcome set (Wang et al. 2014).

Test: label from the status in PepcDB records

| Sequence | protein production |
| --- | --- |
| MKDMQTKIVMIGILLSTGIMLRAQDNGGCEDCPAFNAGGKVEVRGVKERIIGDLSQPVAVRVRTLIQQMTLAEKVAQLVSESDSIPRLNLPAYNYWNECLHGVARAGEVTVFPQAINLASTWDTVLVKRVASAISTEARLKYLEIGKGLTYWSPTINMARDPRWGRNEETYGEDPHLTSRLGVAFVKGLQGDHPTYLKTVATIKHFVANNEENNRFSSSSQIPTKQLYEYYFPAYEACVKEANAQSVMTAYNAFNGVPPSGSHWLLDDVLRKEWGFDGFVVSDCGAIGVMNWQHRVVNSLEEAAALGVNSGCDLECGTTYKEKLVQAVEQGLISEAAIDRALTRVLTARFKLGEFDPMELVPYNHYDKKLLAGKKFAELAYEAAVKSVVLLKNDALLPLNKEKIKSVAVVGPFADYNYLGGYSGQPPYSVSLLKGVKELIGKKGKVTYLNGMGTSADSIAQVVKGADIVLVALGSDEKMARENHDMPSIYLPEEQEKFLKKIYQVNPRIVLVFHTGNPLTSEWADTHILAIMQAWYPGQEAGRALANLLFGNENPSGKLPMTIYKTEEQLPDILDFDMWKGRTYRYMKGEPLYGFGHGLSYTSFEFDNIQGNDTLQPDAILQCSVELSNSGQLAGEEVVQVYVSRENTPVYTYPLKKLVAFKKVKLASGEKKKVDFTIAPRELSVWEDGKWRMLSGKYTLFIGSGQPGLAKGITKGFEVKIR | failed |
| EHGLLVHKAVDKWTTEEVVLWLEQLGPWASLYRDRFLSERVNGRLLLTLTEEEFSRAPYTIENSSHRRVILTELERVR | not failed |
| MIQAFLEKLPHLDVYGNPQYFFYLILAVLPIYIGLFFKKRFALYEIIFSLSFIVMMLTGSTFNQLKSLLAYVVGQSLLVFIYKAYRKRFNHTLVFYVTVCLSIFPLFLVKLIPAISEDGHQSLFGFLGISYLTFRAVAMIIEMRDGVLKEFTLWEFLRFLLFFPTFSSGPIDRFKRFNEDYINIPDRNELLDMLGQAIHYLMLGFLYKFILAYIFGSLIMPPLKELALEQGGVFNWPTLGVMYAFGFDLFFDFAGYTMFALAISNLMGIKSPINFDKPFKSRDLKEFWNRWHMSLSFWFRDFVFMRLVKLLVKNKVFKNRNVTSSVAYIINMLLMGFWHGLTWYYIAYGLFHGIGLVINDAWVRKKKNINKERRLAKKPLLPENKWTYALGVFITFNVVMFSFLIFSGFLDLLWFPQPHNK | failed |
| MPEEALKTYEELLELEKRIGNKREIGLTLANLAIIKDELGNVEEAIKLMEEARKIFEELKDENNYLISLIDLAHFKYELGEYEEAMKLIREVLRNPVDKEIEVNARLVESEIYAGERKYKEAAISLRNALQRSEDDEELFSLVFDSLTEFLEGLFNESRLEHHHHHH | not failed |
| MDKDYYKIMGVSQDASEKDIKMAYRKLARKYHPDISKEPDAEERFKEMAEAYEVLKDPKKRSEYDQYLKYKEFNPQSDGFTGRRTQEQPFQEFHFDSDFFETLFGHSRYQQQPMTGQNYHGKITISLEEAYHGAVKNLQVPVEQGTETKIQTLKVKIPAGVKSGQQIRLAGQGGSGSGGGARGDLYLTVEVMKHPIFDVMENDIYLTLPVTPWEAALGATVVIPTLAGKIDLKIPPGSQGGQKLRIKNRGLPGSPPGNQYVLLKIITPPAQTEEAKALYKKMAEVMPYNPRKTMGV | failed |
| MRVSVVIPARNEEAYLPSALEAVLAQTLPPFEVIVVDNASTDRTREVAEALGARVVFCGRRGVAYARQAGLLAARGEWVAMTDADSLPTPRWLERLAHKAPGAVAVYGPLRFYGVSPLEAALSEWGYRAFLNLMALLGRPNLAGANMMVLKEAALRVGGFPEVEAREDVLLGWRLKALGPVRYAGDALVLTSARRLQGGWGRFLLRQARNLLGDPRGYFGEAGERERLEHHHHHH | not failed |
| MKDFFKDQFFKALEKNTIFSRADVQGNLIFVSDKLCQISGYSKKELIGKKHSIFKHPDVEECYIEELLKKLSYKKPYQVIFKNIDKLGKTFYLETLLIPILDKNNELIEIVAFSHDVSNSFKLNEELALNHAKLRELSINLENTVKNHQQEFIQLGKKFEKKMQIALEKNEKDIKIAYEEILKSSLEQMISDIAHQWRQPLNELGIAMFQMKQNLKDEKGFAEIYSQSKDMIKNMSETIDVFRTLFNKGVEQCVFIKETLNKALEIAFETIEKNHVNINIVSKSDYEVLAYENGLIRVFLNLILNSIEAFKNKKRKIITINFSKFGKNYLKITIKDNAGGIDKENLDKIFQPYFTTKHPSQGIGVGLYISRQIIESFQGKIKVKNGKDGACFEIFLKLKERVE | failed |
| MPDYDLIAILGPTASGKTPFAAALAAELNTEIISADSRQIYRGMDLGTGKDLEDYTINGRQIPYHLIDIADPGYKYNVFEYQRDFLTAYETIKQKGCLPVLCGGTGLYLESVLKGYRLIPVPENQELRVRLAEKSLEELTAILSSYKTLHNSTDVDTVKRAIRAIEIEEYYAKTPIEEREFPQLNSLIIGVDIDRELRREKITRRLKQRLDDGMVEEVRRLLAEGIQPDDLIYYGLEYKYLTLYAIGKMTYDEMFTGLETAIHQFAKRQMTWFRGMERRGFTIHWVDASLPMEEKINFVKQKLKEFLEHHHHHH | not failed |
| MMTLVILLLFLLFCVLVFWISITFSIKYVLIFTAFLFSGLLVYYSFLTLAGLVHRSRKQKDRTLEHYPSVDILIPAHNEGVVIKDTLEAMAKIEYPGKLTVYLLNDNSQDETPEIGDDFDKAYAHIRHIRVPPGEPKGKSRVLNYGLSISDGEYFCVYDADNQPEPHALRMLVEHAETTEDAVGAVGHVRTVNEKRNWLTRMISLEFQIFQLLMQSGRWLLFQTGSLTGTNMLLRRAALEELGGYDPYAIAEDAELTLRITQKGYLLPIVPESITWEQEPEHLKILIKQRTRWLQGNLYILEKMFSSLSFFKGKLLVHSLQQVLVYVVFWLFLIISNVWFVIGLLGIFQIQYSIPLLFMWYVAYVTYVSQLFSAQSVERTFTPTNIFISVIMYFTYAQLFTYLFIRSLILYLRAKSKKQVIGWDKTVRFKKDK | failed |
| MVLFVDFLLEWLEMMRTRVRETTYASYNSGIRQSIIPYFMDKKLTLTDIEENPKYLQDFYQHELSKGLSPNSVLRRHANIRKALQHAFHLGLIKSNPADRIERPKKQLEHHHHHH | failed |
| MPDPAAPGTLRPGGRTARIREAVLLAAGDALAADGFDALDLGEIARRAGVGKTTVYRRWGTPGGLAADLLADMAEQSLPRADTGALEEDLRANARLVVRTLDDPRQGRLFRALIAASLCNEQAAEALHRFYAVRVDEWAGCVRDAVARGEVPDGTDPHGVVAAVSAPLYYALLNTGRSLTEADADRAARAASTAARAGVWVTG | not failed |
| MLRSLRLAALLGSLLMAVAASARDIDAASYGYPLTNPFEATIATTPPDKRPELPSDDEITQSDYSLNLRPEREFTLPDNFWAVKKLKYRLARQDHEAPLIFIIAGTGAPYSSSINEYLKKLFYQAGFHVVQLSSPTSYDFMSAASRFATPGISQEDAEDMYRVMQAVRAQHPRLPVSDFYLTGYSLGALDAAFVSHLDETRRSFNFKRVLLLNPPVNLYTSINNLDKLVQTQVKGIDRSTTFYELMLEKLTRYFQDKGYIDLNDALLYDFQQSRQHLSNEQMAMLIGTSFRFSAADIAFTSDLINRRGLIIPPKFPITEGSSLTPFFKRALQCDFDCYMTEQVIPMWRARTDGNSILQLVNQVSLYALEDYLRSSDKIAVMHNADDVILGPGDIGFLRKVFGERLTLYPHGGHCGNLNYRVNSDAMLEFFRG | failed |
| MQDNNGPCRNFYQLVFEEGKFMPRAFLSHSSADKKSYVEMVAKKLGYNTCVYDEFSFEEGMKSAEEIMKGLSRSDLFVLFLSDSALESNWVKNELNTAQELLNTGDMKRILPIIIDKNITYKDNRIPQWLRDEYNLKYVSRPTVAARRITQKLREISWEQHPRLKEKDQIFVGRNNLTKTFEERIDAFDLQTPTCIFASGIRKIGRRTLLKNCLTKSNVVDDSYQPPIITLNSHEGLEDFIIRIYDLGFSGEFNLSDFMTTEIDHKIGIATELIRDIQVAKEILFILDNGCIITPDREINQWFLQILSHLPNQDRVTFGIASSFRLDKKYIRTRNNIFYIEVPELDKVEREGLLKRYSKFEKLELQPDELKFFGDLLNGYPEQVYYAVDLIKDLGIFQAKKDSYLIQEFNTERVNILMNKYDNNQKSKDFLYFLSEFEFVDYDFIFEIVGDEEFYINLLNELLASAICEHLGANKEYIRINDIIRDFVKRNNLSLPKEYKDKLEDHLNNFLSNYQKEEKSAADLLYSMKEALIQGKSIDEKYLIPSQFLKTMTELYDRHKRYGEIVKLADRVLQNEEYMDHRITEEIRYYLCLALARQKDSRFLQEVQKIDGANHDFLFGFFFRITGNYRKAIERLETAIEKRPHFSFAERELVNVYLLIEDFERALTLAKQNYERDKNNPYHIQAYFRCLIAEDKINGNEEKMEELLDNLNKLKTEKAKQMYMRAKAQYLAFHKDDEIGALELADLATKTYSHDIYCWFTKFDICEKYDKIDEMGNILKVLDKMIDKNSSFYSILINLKALYLAKSDQKPEALKLVFSLNNYPENALDKIIKRIESTKIPRMNKRSIKI | failed |
| MSLTQIVNPIIYPSRTIPRRFTAISPFKTLSPQFSRHPPHALSRRLFLPSVSSIWDAITGGGDSNPREAIAAVRRGMQLFRQGDVAGSVAEFDRAIILDPRQKAYLWQRGLSLYYVDRFEEGAEQFRIDVAQNPNDTEESIWCFICEARLHGVDVARTQFLEVGRDSRPVMREAYNLFKNGGDPEKLVNDFSSGQASEYFYASLYAGLYYEAEGKSENAKFHLTAACGSPYGQRSDDYMASLAKVHCLCRNWSSGIL | failed |
| MFIKLMRNIFSELTSHIQNMKLYFKRSLLVFSLMSSFCVASERSAWEEVYAKSQHKQTETALKLLQDRYHSLPEGAEKLYLTSKLHGYFVLKGQPYYGELVNSHDTYALTEQRFLDALNHEESLDYHSAEETYLTFYAEMKQKNDQDGMVLFEYHLCRLFQRHGRPYQARFYCSQMDQRLLNAEDPLFPRYRGLHLVANNLEFLGEYEEALQTYDLLLSLLPDYVDPSGIYNDVGLLMGTLGQYESALDYLNKALEYRLEQGNPLLIAQVEHSLGDTYFKQGRYEESILYFEQAKAHLTPANYLFGLAYVHLGLGKAYIELNNFVEGDQHLFQALEYVNQHKDQHLQGLIYLSLAQAHFKEQKYAQAIDYANQAVAISESASLPRIKAQAYLQLAKIAEAEQQYQEALSWYRQYAESELLLRNTEQRKAFEALDLAKAELEQKRGVNFWRENYQALAEKYEMLKWQRVSLSLLVIVFALILPIAHYRRRKECDQNQQDSLHGVLSRTSGLERLTHIEACQQTEHVHLLALLDIDQLRQFNERHGYERGDIALQNTINTLLHQLRAKEFVCRLGDDEFLVVMPNCRRTLSETRLFVLHHALNGKTPTDAKSTVGLSVTLSYLAVESGLASFTHFYPKLDSALSIAKQSGNGGLIDAADPTNALLTACS | failed |
| MAGFPELVVLDPPWDKELAAGTESQALVSATPREDFRVRCTSKRAVTEMLQLCGRFVQKLGDALPEEIREPALRDAQWTFESAVQENISINGQAWQEASDNCFMDSDIKVLEDQFDEIIVDIATKRKQYPRKILECVIKTIKAKQEILKQYHPVVHPLDLKYDPDPAPHMENLKCRGETVAKEISEAMKSLPALIEQGEGFSQVLRMQPVIHLQRIHQEVFSSCHRKPDAKPENFITQIETTPTETASRKTSDVVLKRKQTKDCPQRKWYPLRPKKINLDT | failed |
| MSTVRSIYYRGSLEHCNYTCSYCPFGRKSVSADTTEDQEALDRFISRIGGWKYGSLRILIIPYGEAMIHRYYREGIMRLAAMPHVIGVSCQTNLSFSVSRFLDEAEAEQADVSKFRFWASYHPEMVGVGEFASKVEMLRAAGIGVCAGAVGDPSAKEQIRKLRQLLDPSVYLFVNAMQGLRKPLSEEDIRFFGEIDNLFDYDRRNAKACLDGCVGGRETLFIDRKGDMYACPRSGIRMGNFYDDSTSDFQPFCLRKVCDCYIAFSNLCDTPLRRMMGDGALWRIPERKKVEAVFFDVDGTLTDAQGRIPDRTVSVLEYMAKRLPLYLSTALPVSHAKKRLGNVFGLFSGGVFADGGLLCYGETIECVPIANPMTAGFPGCRVTRYTREGKVFKYAVLAPNTREAVRWLTELDEEAYQLYQEGRLLTVVDSKASKKNGLITLCARLGISLREVLVVGNTMHDWPMMSVAGYSCAVMDAEEKLRKLSGYVLNPDSIPVFFDILEHHHHHH | failed |
